# Positions of bridges follow the written chain, without caps; N, C: chain ends. Non-standard residues stand in square brackets, D forms with d. Hyp = O=C(O)[C@@H]1C[C@@H](O)CN1; Thz = O=C(O)[C@@H]1CSCN1; Aib = CC(C)(N)C(=O)O; Sar = CNCC(=O)O
# B1: Chem. 58 (peptide)
# peptide: cyclo(CAH[dF]K(Ac)WCAK[dK]KW)
# modifications: disulfide 1-7
# SMILES: CC(=O)NCCCC[C@@H]1NC(=O)[C@@H](Cc2ccccc2)NC(=O)[C@H](Cc2c[nH]cn2)NC(=O)[C@H](C)NC(=O)[C@@H]2CSSC[C@H](NC(=O)[C@H](Cc3c[nH]c4ccccc34)NC1=O)C(=O)N[C@@H](C)C(=O)N[C@@H](CCCCN)C(=O)N[C@H](CCCCN)C(=O)N[C@@H](CCCCN)C(=O)N[C@@H](Cc1c[nH]c3ccccc13)C(=O)N2
# notes: also called c[c[Cys-Ala-His-D-Phe-AcLys-Trp-Cys]-Ala-Lys-D-Lys-Lys-Trp]
# B2: Chem. 61 (peptide)
# peptide: cyclo(C[Aib]H[dF]HWCAKKKW)
# modifications: disulfide 1-7
# SMILES: C[C@@H]1NC(=O)[C@@H]2CSSC[C@H](NC(=O)[C@H](Cc3c[nH]c4ccccc34)NC(=O)[C@H](CCCCN)NC(=O)[C@H](CCCCN)NC(=O)[C@H](CCCCN)NC1=O)C(=O)NC(C)(C)C(=O)N[C@@H](Cc1c[nH]cn1)C(=O)N[C@H](Cc1ccccc1)C(=O)N[C@@H](Cc1c[nH]cn1)C(=O)N[C@@H](Cc1c[nH]c3ccccc13)C(=O)N2
# notes: also called c[c[Cys-Aib-His-D-Phe-His-Trp-Cys]-Ala-Lys-Lys-Lys-Trp]
# B3: Chem. 100 (peptide)
# peptide: cyclo(C[Thz]H[dF]HWCAKKKR)
# modifications: disulfide 1-7
# SMILES: C[C@@H]1NC(=O)[C@@H]2CSSC[C@H](NC(=O)[C@H](CCCNC(=N)N)NC(=O)[C@H](CCCCN)NC(=O)[C@H](CCCCN)NC(=O)[C@H](CCCCN)NC1=O)C(=O)N1CSC[C@H]1C(=O)N[C@@H](Cc1c[nH]cn1)C(=O)N[C@H](Cc1ccccc1)C(=O)N[C@@H](Cc1c[nH]cn1)C(=O)N[C@@H](Cc1c[nH]c3ccccc13)C(=O)N2
# notes: also called c[c[Cys-THAZ-His-D-Phe-His-Trp-Cys]-Ala-Lys-Lys-Lys-Arg]
# B4: Chem. 109 (peptide)
# peptide: cyclo(C[Thz]H[dF]HWCAAKAW)
# modifications: disulfide 1-7
# SMILES: C[C@@H]1NC(=O)[C@H](C)NC(=O)[C@@H]2CSSC[C@H](NC(=O)[C@H](Cc3c[nH]c4ccccc34)NC(=O)[C@H](C)NC(=O)[C@H](CCCCN)NC1=O)C(=O)N1CSC[C@H]1C(=O)N[C@@H](Cc1c[nH]cn1)C(=O)N[C@H](Cc1ccccc1)C(=O)N[C@@H](Cc1c[nH]cn1)C(=O)N[C@@H](Cc1c[nH]c3ccccc13)C(=O)N2
# notes: also called c[c[Cys-THAZ-His-D-Phe-His-Trp-Cys]-Ala-Ala-Lys-Ala-Trp]
# B5: Chem. 110 (peptide)
# peptide: cyclo(C[Thz]H[dF]HWCAKKAW)
# modifications: disulfide 1-7
# SMILES: C[C@@H]1NC(=O)[C@H](CCCCN)NC(=O)[C@H](CCCCN)NC(=O)[C@H](C)NC(=O)[C@@H]2CSSC[C@H](NC(=O)[C@H](Cc3c[nH]c4ccccc34)NC1=O)C(=O)N1CSC[C@H]1C(=O)N[C@@H](Cc1c[nH]cn1)C(=O)N[C@H](Cc1ccccc1)C(=O)N[C@@H](Cc1c[nH]cn1)C(=O)N[C@@H](Cc1c[nH]c3ccccc13)C(=O)N2
# notes: also called c[c[Cys-THAZ-His-D-Phe-His-Trp-Cys]-Ala-Lys-Lys-Ala-Trp]
# B6: Chem. 74 (peptide)
# peptide: cyclo(C[Sar]H[dF]HWCAKKKR)
# modifications: disulfide 1-7
# SMILES: C[C@@H]1NC(=O)[C@@H]2CSSC[C@H](NC(=O)[C@H](CCCNC(=N)N)NC(=O)[C@H](CCCCN)NC(=O)[C@H](CCCCN)NC(=O)[C@H](CCCCN)NC1=O)C(=O)N(C)CC(=O)N[C@@H](Cc1c[nH]cn1)C(=O)N[C@H](Cc1ccccc1)C(=O)N[C@@H](Cc1c[nH]cn1)C(=O)N[C@@H](Cc1c[nH]c3ccccc13)C(=O)N2
# notes: also called c[c[Cys-Sar-His-D-Phe-His-Trp-Cys]-Ala-Lys-Lys-Lys-Arg]
# B7: Chem. 97 (peptide)
# peptide: cyclo(C[Hyp]H[dF]HWCAKKKR)
# modifications: disulfide 1-7
# SMILES: C[C@@H]1NC(=O)[C@@H]2CSSC[C@H](NC(=O)[C@H](CCCNC(=N)N)NC(=O)[C@H](CCCCN)NC(=O)[C@H](CCCCN)NC(=O)[C@H](CCCCN)NC1=O)C(=O)N1C[C@H](O)C[C@H]1C(=O)N[C@@H](Cc1c[nH]cn1)C(=O)N[C@H](Cc1ccccc1)C(=O)N[C@@H](Cc1c[nH]cn1)C(=O)N[C@@H](Cc1c[nH]c3ccccc13)C(=O)N2
# notes: also called c[c[Cys-Hyp-His-D-Phe-His-Trp-Cys]-Ala-Lys-Lys-Lys-Arg]
# B8: Chem. 76 (peptide)
# peptide: cyclo(CKH[dF]HWCAKKKW)
# modifications: disulfide 1-7
# SMILES: C[C@@H]1NC(=O)[C@@H]2CSSC[C@H](NC(=O)[C@H](Cc3c[nH]c4ccccc34)NC(=O)[C@H](CCCCN)NC(=O)[C@H](CCCCN)NC(=O)[C@H](CCCCN)NC1=O)C(=O)N[C@@H](CCCCN)C(=O)N[C@@H](Cc1c[nH]cn1)C(=O)N[C@H](Cc1ccccc1)C(=O)N[C@@H](Cc1c[nH]cn1)C(=O)N[C@@H](Cc1c[nH]c3ccccc13)C(=O)N2
# notes: also called c[c[Cys-Lys-His-D-Phe-His-Trp-Cys]-Ala-Lys-Lys-Lys-Trp]
# B9: Chem. 78 (peptide)
# peptide: cyclo(CKH[dF]HWCAKKKR)
# modifications: disulfide 1-7
# SMILES: C[C@@H]1NC(=O)[C@@H]2CSSC[C@H](NC(=O)[C@H](CCCNC(=N)N)NC(=O)[C@H](CCCCN)NC(=O)[C@H](CCCCN)NC(=O)[C@H](CCCCN)NC1=O)C(=O)N[C@@H](CCCCN)C(=O)N[C@@H](Cc1c[nH]cn1)C(=O)N[C@H](Cc1ccccc1)C(=O)N[C@@H](Cc1c[nH]cn1)C(=O)N[C@@H](Cc1c[nH]c3ccccc13)C(=O)N2
# notes: also called c[c[Cys-Lys-His-D-Phe-His-Trp-Cys]-Ala-Lys-Lys-Lys-Arg]
# B10: Chem. 77 (peptide)
# peptide: cyclo(CKH[dF]HWCKKKKW)
# modifications: disulfide 1-7
# SMILES: NCCCC[C@@H]1NC(=O)[C@H](CCCCN)NC(=O)[C@H](CCCCN)NC(=O)[C@@H]2CSSC[C@H](NC(=O)[C@H](Cc3c[nH]c4ccccc34)NC(=O)[C@H](CCCCN)NC1=O)C(=O)N[C@@H](CCCCN)C(=O)N[C@@H](Cc1c[nH]cn1)C(=O)N[C@H](Cc1ccccc1)C(=O)N[C@@H](Cc1c[nH]cn1)C(=O)N[C@@H](Cc1c[nH]c3ccccc13)C(=O)N2
# notes: also called c[c[Cys-Lys-His-D-Phe-His-Trp-Cys]-Lys-Lys-Lys-Lys-Trp]
# B11: Chem. 96 (peptide)
# peptide: cyclo(CPH[dF]HWCAHKKR)
# modifications: disulfide 1-7
# SMILES: C[C@@H]1NC(=O)[C@@H]2CSSC[C@H](NC(=O)[C@H](CCCNC(=N)N)NC(=O)[C@H](CCCCN)NC(=O)[C@H](CCCCN)NC(=O)[C@H](Cc3c[nH]cn3)NC1=O)C(=O)N1CCC[C@H]1C(=O)N[C@@H](Cc1c[nH]cn1)C(=O)N[C@H](Cc1ccccc1)C(=O)N[C@@H](Cc1c[nH]cn1)C(=O)N[C@@H](Cc1c[nH]c3ccccc13)C(=O)N2
# notes: also called c[c[Cys-Pro-His-D-Phe-His-Trp-Cys]-Ala-His-Lys-Lys-Arg]
# B12: Chem. 84 (peptide)
# peptide: cyclo(C[dK]H[dF]HWCAKKKW)
# modifications: disulfide 1-7
# SMILES: C[C@@H]1NC(=O)[C@@H]2CSSC[C@H](NC(=O)[C@H](Cc3c[nH]c4ccccc34)NC(=O)[C@H](CCCCN)NC(=O)[C@H](CCCCN)NC(=O)[C@H](CCCCN)NC1=O)C(=O)N[C@H](CCCCN)C(=O)N[C@@H](Cc1c[nH]cn1)C(=O)N[C@H](Cc1ccccc1)C(=O)N[C@@H](Cc1c[nH]cn1)C(=O)N[C@@H](Cc1c[nH]c3ccccc13)C(=O)N2
# notes: also called c[c[Cys-D-Lys-His-D-Phe-His-Trp-Cys]-Ala-Lys-Lys-Lys-Trp]
# B13: Chem. 95 (peptide)
# peptide: cyclo(CPH[dF]HWCAKKHR)
# modifications: disulfide 1-7
# SMILES: C[C@@H]1NC(=O)[C@@H]2CSSC[C@H](NC(=O)[C@H](CCCNC(=N)N)NC(=O)[C@H](Cc3c[nH]cn3)NC(=O)[C@H](CCCCN)NC(=O)[C@H](CCCCN)NC1=O)C(=O)N1CCC[C@H]1C(=O)N[C@@H](Cc1c[nH]cn1)C(=O)N[C@H](Cc1ccccc1)C(=O)N[C@@H](Cc1c[nH]cn1)C(=O)N[C@@H](Cc1c[nH]c3ccccc13)C(=O)N2
# notes: also called c[c[Cys-Pro-His-D-Phe-His-Trp-Cys]-Ala-Lys-Lys-His-Arg]
# Assays:
# [1] = target: T1, human melanocortin 4 receptor (human, UniProt P32245 1-332); assay: competition with 125-NDP-α-MSH, BHK human MC4R membranes
# T1 construct: whole, on cells; cAMP assay on whole BHK cells; also called MC4R; human MC4 receptor
# Method: In order to assess the binding affinity of the selected compounds for the human MC4R competitive binding assays was performed with radiolabeled NDP-alpha MSH (¹²⁵NDP-α-MSH).
# The assay was performed in 96-well filterplates (Unifilter) using BHK cells stably expressing the human MC4 receptor.
# The BHK cell membranes were prepared from frozen or fresh cells that were homogenized in 20 mM HEPES pH 7.1, 5 mM MgCl₂, 1 mg/ml bacitracin (buffer 1) and centrifuged at 15000 rpm at 4° C., 10 min in a Sorvall RC 5B plus, SS-34 rotor. The supernatant was discarded, and the pellets were re-suspended in buffer 1, homogenized and centrifuged two more times. The final pellets were re-suspended in buffer 1 and the protein concentration was measured and adjusted with buffer 1 to 5 mg/ml and the membrane preparation was kept at −80° C. until assay. The assay was run on a dilution of this cell membrane suspension without any further preparation. The suspension was diluted to give maximally 10% specific binding, i.e. to approx. 50-100 fold dilution, optimized after each membrane preparation. The assay was performed in a total volume of 200 μl: 50 μl of cell suspension, 50 μl of ¹²⁵NDP-α-MSH (apx. […] in final concentration), 50 μl of test compound and 50 μl binding buffer were mixed and incubated for 2 h at 25° C. (binding buffer: 25 mM HEPES, pH 7.0, 1 mM CaCl₂), 1 mM MgSO₄, 1 mM EGTA, 0.005% Tween™ 20 and 0.1% HSA or, alternatively, 0.1% ovalbumin (Sigma; catalogue No. A-5503)). Test compounds were dissolved in 100% DMSO and diluted in binding buffer in a dose range from 1 μM to 0.001 nM. Radiolabelled ligand and membranes were diluted in binding buffer. The incubation was stopped by dilution with 8×100 μl ice-cold 0.9% NaCl. The radioactivity retained on the filters was counted using a Packard Topcounter. The data were analysed by non-linear regression analysis of binding curves, using the Windows™ program GraphPad™ Prism (GraphPad Software, USA).
# [2] = target: T1, human melanocortin 4 receptor; assay: cell-based or functional assay
# [3] = target: human melanocortin 1 receptor (human, UniProt Q01726 1-317); assay: cell-based or functional assay
# Sequence of human melanocortin 1 receptor (Q01726 whole entry): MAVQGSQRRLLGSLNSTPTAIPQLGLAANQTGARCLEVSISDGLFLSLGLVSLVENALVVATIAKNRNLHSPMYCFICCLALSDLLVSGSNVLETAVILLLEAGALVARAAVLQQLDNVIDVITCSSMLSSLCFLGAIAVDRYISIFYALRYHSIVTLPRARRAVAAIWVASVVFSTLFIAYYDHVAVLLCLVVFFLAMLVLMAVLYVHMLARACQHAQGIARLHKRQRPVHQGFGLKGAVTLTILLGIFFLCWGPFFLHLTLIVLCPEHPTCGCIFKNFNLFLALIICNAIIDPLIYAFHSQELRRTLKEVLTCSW
# T1 sequence (P32245 whole entry): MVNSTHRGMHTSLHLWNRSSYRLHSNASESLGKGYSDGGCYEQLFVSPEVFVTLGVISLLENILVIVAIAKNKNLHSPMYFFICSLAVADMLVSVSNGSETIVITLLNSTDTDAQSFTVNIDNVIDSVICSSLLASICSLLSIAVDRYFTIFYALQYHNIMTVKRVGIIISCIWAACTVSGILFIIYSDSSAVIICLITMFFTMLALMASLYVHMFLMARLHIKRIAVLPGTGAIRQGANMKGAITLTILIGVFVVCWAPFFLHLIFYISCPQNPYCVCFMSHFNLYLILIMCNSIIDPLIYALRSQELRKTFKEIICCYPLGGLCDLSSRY
Binder,Ki [1] [nM],MC4R cAMP EC50 [2] [nM],MC1R cAMP EC50 [3] [nM]
B1,0.09,0.11,3.93
B2,0.22,0.31,> 1
B3,0.04,0.02,18.5
B4,0.3,0.15,> 7
B5,0.09,0.05,63.3
B6,0.08,0.29,> 5.5
B7,0.05,0.19,23.1
B8,0.09,0.16,21.8
B9,0.02,0.04,3.8
B10,0.72,0.46,49.8
B11,0.04,0.04,57.7
B12,0.19,0.59,43.4
B13,0.07,0.22,87.7
